According to patent publication US20260116984A1 (ENTHERA S R L, published 2026):
Numbering of substitutions follows the chain as printed.

Tests used:
[1] = molecular target: TMEM219 on human beta cells (Betalox-5) and human islets (human) (UniProt Q86XT9); assay: cell-based or functional assay
[2] = molecular target: T1, Human Ecto-TMEM219 (human, UniProt Q86XT9 43-204); assay: Octet BLI, antibody captured via Fc on biosensor, antigen at 150 nM
T1 construct: also called hEcto-TMEM
T1 sequence: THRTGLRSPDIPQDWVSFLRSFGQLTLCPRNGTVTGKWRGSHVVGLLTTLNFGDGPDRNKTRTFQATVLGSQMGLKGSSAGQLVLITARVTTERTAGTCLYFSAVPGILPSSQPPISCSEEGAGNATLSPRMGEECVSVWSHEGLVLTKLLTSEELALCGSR
Experimental: (§1) The binding affinity measurements were performed using an Octet instrument (Octet BMIA), which is a Biolayer Interferometry (BLI) platform based on Biomolecular Interaction Analysis. To establish the assay, the target monoclonal antibody (30 μg/ml in PBS) was immobilized via Fc on the Anti-Mouse IgG Fc Capture (AMC) or Anti-Human IgG Fc Capture (AMC) biosensors and the interaction with the antigen, human and murine Ecto-TMEM219 (Genescript's customized protein service) at 150 nM was measured.

[3] = molecular target: T1, Human Ecto-TMEM219; assay: ELISA, ectoTMEM coated at 5 µg/ml, antibody dilution series, anti-human-Fc HRP detection
Experimental: The binding activity of the purified IgG4 (TC03, TC04, TC05) to the recombinant ectoTMEM protein was measured by ELISA. In brief, ectoTMEM was diluted in PBS to 5 μg/ml and coated onto 96-well ELISA plates (100 μl/well) for 1 h at RT. After blocking and washing of the plates, an antibody dilution series was added to the plates and incubated for 1 h at RT. After washing of the plates, bound antibodies were detected via a secondary anti-human-Fc HRP-conjugated antibody. After another washing step, TMB reaction was performed, stopped with sulfuric acid and absorbance was measured. Based on the absorbance readings, an EC50 of the saturating antibodies was calculated.

[4] = molecular target: T2, Murine Ecto-TMEM219 (murine, UniProt Q9D123 43-203); assay: Octet BLI, antibody captured via Fc on biosensor, antigen at 150 nM
T2 construct: also called mEcto-TMEM
T2 sequence: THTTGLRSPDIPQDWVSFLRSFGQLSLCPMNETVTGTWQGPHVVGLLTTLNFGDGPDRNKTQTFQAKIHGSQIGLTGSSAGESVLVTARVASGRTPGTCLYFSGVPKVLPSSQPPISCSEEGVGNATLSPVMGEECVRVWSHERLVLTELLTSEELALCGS
Experimental: as §1

Sequence of TMEM219 on human beta cells (Betalox-5) and human islets (human) (Q86XT9 39-240): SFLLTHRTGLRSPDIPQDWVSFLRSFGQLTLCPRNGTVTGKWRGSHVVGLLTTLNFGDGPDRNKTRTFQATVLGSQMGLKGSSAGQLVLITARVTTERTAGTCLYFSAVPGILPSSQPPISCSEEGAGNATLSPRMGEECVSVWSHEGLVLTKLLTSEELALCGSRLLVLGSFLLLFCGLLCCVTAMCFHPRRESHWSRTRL

With “Recombinant human IGFBP3 (from UniProt P17936 28-291) (ligand)” as the molecule, how does the CASP8 mRNA upregulation in beta cells cultured with IGFBP3 [1] read?
The CASP8 mRNA upregulation in beta cells cultured with IGFBP3 was 70%.

And the cell death of beta cells challenged with IGFBP3 [1]?
The cell death of beta cells challenged with IGFBP3 was 30%.

B1: TE10 (antibody, V domains shown)
VH: QVQLVESGGGVVQPGRSLRLSCAASGFTFSSYGMHWVRQAPGKGLEWVAVIWYDGSNKYYADSVKGRFTISRDNSKNTLYLQMNSLRAEDTAVYYCAREGRGMDVWGQGTTVTVSS
VL: QPVLTQSSSASASLGSSVKLTCTLSSGHSSYIIAWHQQQPGKAPRYLMKLEGSGSYNKGSGVPDRFSGSSSGADRYLTISNLQFEDEADYYCETWDSNTPHAVFGGGTQLTAL
How did the Kd [2] turn out when B1 was run?
Its Kd is under 0.001 nM.

B2: TC05 (antibody, human IgG4, V domains shown)
VH: QIQLVQSGAEVKQPGASVSVSCAASGYTFTSYGISWVRQAPGQGLEWMGWISAYNGNTNYAQKLQGRVTMTTDTSTSTAYMELSSLRSDDTAVYYCARWGRWLAHDYWGQGTLVTVSS
VL: QAVLTQPPSVSVSPGQTASITCSGDKLGNKNAYWYQQKPGQSPVLVMYQSTRRPSGIPERFSASNSGNTATLTISGTQAMDEADYYCQAWDSSSGWEVFGGGTKLTVL
How did the EC50 [3] turn out when B2 was run?
Its EC50 is 0.0791 µg/mL.

B3: TC03 (antibody, human IgG4, V domains shown)
VH: B2 VH
VL: B2 VL with D91L
How did the EC50 [3] turn out when B3 was run?
The EC50 was 0.0647 µg/mL.

B4: TC01 (antibody, V domains shown)
VH: B2 VH with Q13K, S19K, A23K, S84R
VL: B2 VL
notes: also called anti-TMEM219 TC01; TCO1
Which results are given for B4?
Kd [4]: 30 nM; Kd [2]: 20 nM

B5: TC04 (antibody, human IgG4, V domains shown)
VH: B2 VH
VL: B2 VL with M80E
B5 was tested. Which EC50 [3] did it give?
The EC50 was 0.0898 µg/mL.

B6: TM1 (antibody, V domains shown)
VH: QVQLVESGGGVVQPGRSLRLSCAASGFTFSTYGIHWVRQAPGKGLEWVAVIWYDGYNKYYVDSVKGRFTISRDNSENTVYLQMNSLRTEDTAVYYCAREGWFGKLLSALDIWGQGTMVTVSS
VL: VIQMTQSPSSLSASVGDRVTITCRASQGIRNDLGWYLQKPGKAPELLIYPASSLQSGVPSRFSGSGSGTDFTLTISSLQPEDFATYYCLQDYNYPFTFGQGTKLEIK
notes: constant regions are not tied to it; also called anti-TMEM219 TM1
How did the Kd [4] turn out when B6 was run?
The Kd was under 0.001 nM.

What about the Kd [2] of the same molecule?
The Kd was under 0.001 nM.
